In general, Km refers to the concentration of substrate that gives half-maximal velocity. By kcat is commonly meant the number of substrate molecules converted per active site and unit of time at saturation. A word on the kcat/Km: it is the second-order rate constant that governs catalysis at low substrate concentration.

Changes are numbered by the printed parent chain. Numbers in names are those of the source.

One series deals with T1, SsArd1 (Saccharolobus solfataricus, UniProt Q980R9).
T1 construct: gene ard1; pET28a, C-terminal His6-tag, expressed in E. coli BL21(DE3); monomer
Description: X-ray crystal structure, […] Å. As to conditions: co-crystallised binary complex; CoA also in ternary complex with peptide. The format is binding.

Series [1] has as its target T2, SsArd1 E35V mutant (Sulfolobus solfataricus) (UniProt Q980R9).
T2 sequence: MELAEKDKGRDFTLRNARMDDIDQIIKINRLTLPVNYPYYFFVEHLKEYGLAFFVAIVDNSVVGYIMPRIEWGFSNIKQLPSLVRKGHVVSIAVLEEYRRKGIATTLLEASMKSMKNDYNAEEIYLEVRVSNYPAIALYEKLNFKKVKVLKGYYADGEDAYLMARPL

The target in series [2] is T3, SsArd1 E35A mutant (Sulfolobus solfataricus) (UniProt Q980R9).
T3 sequence: T2 sequence with V35A

The target in series [3] is T4, Sulfolobus solfataricus Ard1 (SsArd1), wild type (Sulfolobus solfataricus, UniProt Q980R9 1-167).
T4 construct: N-alpha-acetyltransferase Ard1 of Sulfolobus solfataricus (NatA family); one molecule in the asymmetric unit; also called wild-type SsArd1; source: E. coli BL21 (DE3), purified (Ni-Sepharose, size-exclusion chromatography)
T4 sequence: T2 sequence with V35E
Description: crystal structure; SsArd1-CoA crystals soaked with 2 mM Alba peptide (SSGTPT), dehydrated over 12.5% w/v PEG 4,000; ternary SsArd1-CoA/peptide complex at 1.84 Å. The conditions noted are these: both partners purified.

Substrate in series [4]: CC(=O)SCCNC(=O)CCNC(=O)[C@H](O)C(C)(C)COP(=O)(O)OP(=O)(O)OC[C@H]1O[C@@H](n2cnc3c(N)ncnc32)[C@H](O)[C@@H]1OP(=O)(O)O
Description: Ellman (DTNB) acetyltransferase assay, Michaelis-Menten fit. The format is biochemical, Saccharolobus solfataricus. The conditions noted are these: saturating Alba peptide (SSGTPT), pH 8.0, 65°C. From the text:
Ellman (DTNB) acetyltransferase assay, Michaelis-Menten fit on SsArd1
On the technique in general: In Ellman's method for cholinesterases, released thiocholine reacts with DTNB.

Series [5] concerns the target T5, SsArd1 E35F mutant (Sulfolobus solfataricus) (UniProt Q980R9).
T5 sequence: T2 sequence with V35F

The mark [6] stands for this setting: mutant given as R132A in Table 3, N132A in text.

T1 sequence (Q980R9 whole entry): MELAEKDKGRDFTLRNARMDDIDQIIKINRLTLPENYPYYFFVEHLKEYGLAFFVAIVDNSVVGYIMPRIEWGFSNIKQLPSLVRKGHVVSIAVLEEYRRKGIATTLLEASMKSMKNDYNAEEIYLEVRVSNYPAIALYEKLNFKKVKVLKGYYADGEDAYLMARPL

For the molecule `CC(C)(COP(=O)(O)OP(=O)(O)OC[C@H]1O[C@@H](n2cnc3c(N)ncnc32)[C@H](O)[C@@H]1OP(=O)(O)O)[C@@H](O)C(=O)NCCC(=O)NCCS` [CoA], on SsArd1, the “X-ray crystal structure, 2.13 Å” value is 4R3K for SsArd1-CoA and 4R3L for SsArd1-CoA/peptide.
Turning to MEEKVG [SSB peptide (MEEKVG), N-terminal 6-mer of the single-stranded DNA-binding protein SSB], the figures for the acetyltransferase activity with the SSB substrate peptide, against wild-type SsArd1 in series [1] and in series [2] were 5 fold and 8 fold, respectively.

B1: Alba peptide (SSGTPT), N-terminal 6-mer of the chromatin protein Alba (peptide)
peptide: SSGTPT
notes: N-terminal 6 residues of Alba of Sulfolobus solfataricus, which has Ser at its N-terminus; Only the first 2 residues are seen in the electron density of the ternary complex; also called Alba substrate peptide; 6-mer Alba peptide; source: synthetic peptide (GenScript)
With B1, the binding result in series [3] was “binds”.

B2: SsArd1 (Saccharolobus solfataricus P2) (protein)
chain: T2 sequence with V35E
notes: pET28a, C-terminal His6-tag, expressed in E. coli BL21(DE3); monomer
For the molecule B2, in series [4], the Km amounted to 67.17 ± 7.48 µM, the catalytic constant (kcat) worked out at 0.5595 ± 0.0275 s⁻¹ and the kcat/Km was 8370 M⁻¹ s⁻¹.

B3: SsArd1 (Saccharolobus solfataricus P2; T105A) (protein)
chain: T2 sequence with V35E, T105A
notes: as for B2
As for B3, in series [4], the Km was 195.89 ± 12.27 µM, the kcat was 0.5818 ± 0.0205 s⁻¹ and the specificity constant (kcat/Km) worked out at 2970 M⁻¹ s⁻¹.

B4: SsArd1 (Saccharolobus solfataricus P2; R100A) (protein)
chain: T2 sequence with V35E, R100A
notes: as for B2
In the case of B4, in series [4], the Km stood at 466.98 ± 50.83 µM, the kcat was 0.4783 ± 0.0448 s⁻¹ and the specificity constant (kcat/Km) was found to be 1020 M⁻¹ s⁻¹.

B5: SsArd1 (Saccharolobus solfataricus P2; N132A) (protein)
chain: T2 sequence with V35E, N132A
notes: as for B2
Regarding B5, in series [4] (setting [6]), the Michaelis constant (Km) was found to be 279.37 ± 75.86 µM, the kcat came out at 0.556 ± 0.0647 s⁻¹ and the kcat/Km came to 2050 M⁻¹ s⁻¹.
For AAKKRG [Hjc peptide (AAKKRG), N-terminal 6-mer of the Holliday junction-resolving enzyme Hjc], the acetyltransferase activity with the Hjc substrate peptide, against wild-type SsArd1 and the E35A mutant in series [5] and in series [1] was 2 fold each time.

The record behind these values is PMC5390088, “Structural Basis for Substrate-specific Acetylation of Nα-acetyltransferase Ard1 from Sulfolobus solfataricus” (Scientific Reports, 2015).
